Assay [1] concerns the target human FOLR1 recombinant protein (extracellular domain of human folate receptor alpha) (human) (UniProt P15328). Put plainly: ELISA; coated recombinant protein, HA-tagged VHH in bacterial extract, anti-HA detection; A405 antigen well / blank well. (In general: In an ELISA, binding on a coated surface is turned into a signal by an enzyme label.)
The target of assay [2] is T1, human folate receptor gamma (FOLR3), recombinant (human, UniProt P41439 23-245, limits assumed).
T1 construct: extracellular domain; Bought protein; also called human FOLR3
T1 sequence (P41439 23-245 limits assumed): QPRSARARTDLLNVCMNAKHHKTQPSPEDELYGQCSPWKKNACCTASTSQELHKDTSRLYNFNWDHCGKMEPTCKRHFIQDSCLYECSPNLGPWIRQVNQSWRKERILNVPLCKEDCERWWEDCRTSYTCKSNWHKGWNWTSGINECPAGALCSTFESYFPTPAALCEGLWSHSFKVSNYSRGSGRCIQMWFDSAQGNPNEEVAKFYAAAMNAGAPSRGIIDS
Described as above. How it is done:
(§1) The day before, 0.1 µg recombinant protein at a concentration of 1 µg/mL in 100 mM NaHCO3, pH 8.2 was coated in a 96-well ELISA plate (Nunc MaxiSorp). Per VHH clone also a blank coated well was foreseen (only buffer). The wells were overcoated with protein-free T20 (PBS) blocking buffer (Pierce). After washing with PBS, pH7.4, 0.05% Tween, VHH-containing bacterial extract was added to every well. Binding of HA-tagged VHHs was detected by using mouse anti-HA.11 epitope tag (clone 16B12, Biolegend) as the primary Ab and goat anti-mouse IgG (whole molecule) alkaline phosphatase conjugate (Sigma-Aldrich) as the secondary Ab, with thorough washing with PBS, pH 7.4, 0.05% Tween in between. Signals were developed using phosphatase substrate (Sigma-Aldrich) in AP blot buffer (100 mM NaCl, 50 mM MgCl2, 100 mM Tris, pH 9.5). The absorbance was determined at 405 nm using an absorbance microplate reader (Molecular Devices). Per clone the ratio was determined between the absorbance in the antigen-coated well versus the well without antigen.

Assay [3] has as its target T2, human folate receptor beta (FOLR2), extracellular domain, recombinant (human, UniProt P14207 17-228, limits assumed).
T2 construct: extracellular domain; Bought protein; also called human FOLR2
The assay is described as above. How it is done:
as §1

Assay [4] addresses T3, murine FOLR1, extracellular domain, recombinant (murine, UniProt P35846 25-232).
T3 construct: extracellular domain; Bought protein; also called mouse FOLR1
Described as above. How it is done: as §1

In assay [5] the target is T1, human folate receptor gamma (FOLR3), …. The assay is described as follows: ELISA, coated recombinant protein, HA-tagged VHH in bacterial extract. How it is done:
as §1

Assay [6] has as its target T2, human folate receptor beta (FOLR2), …. Described as above. How it is done:
as §1

Assay [7] has as its target T3, murine FOLR1, extracellular domain, …. The assay is described as above. How it is done: as §1

T3 sequence (P35846 25-232 limits assumed): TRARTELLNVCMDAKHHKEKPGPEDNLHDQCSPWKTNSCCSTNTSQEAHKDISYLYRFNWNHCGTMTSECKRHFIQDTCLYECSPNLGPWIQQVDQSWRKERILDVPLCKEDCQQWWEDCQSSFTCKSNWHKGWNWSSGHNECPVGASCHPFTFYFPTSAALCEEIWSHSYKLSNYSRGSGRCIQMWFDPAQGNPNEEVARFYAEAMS
T2 sequence (P14207 17-228 limits assumed): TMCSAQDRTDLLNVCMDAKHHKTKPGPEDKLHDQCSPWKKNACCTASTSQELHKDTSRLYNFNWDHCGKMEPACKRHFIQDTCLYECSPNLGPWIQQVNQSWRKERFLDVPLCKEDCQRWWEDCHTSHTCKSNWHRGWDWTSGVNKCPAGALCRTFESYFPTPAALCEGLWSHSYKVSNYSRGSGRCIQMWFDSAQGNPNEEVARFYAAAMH
Chain of human FOLR1 recombinant protein (extracellular domain of human folate receptor alpha) (human) (P15328 25-233): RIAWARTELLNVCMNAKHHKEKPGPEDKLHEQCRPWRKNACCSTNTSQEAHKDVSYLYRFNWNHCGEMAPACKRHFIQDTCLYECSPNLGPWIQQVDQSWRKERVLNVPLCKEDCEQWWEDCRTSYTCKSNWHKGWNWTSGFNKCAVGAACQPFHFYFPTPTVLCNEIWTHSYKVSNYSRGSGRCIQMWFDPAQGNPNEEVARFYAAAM

B1: HA-tagged variant of VHH A4 (VHH)
VHH: QVQLQESGGGLARAGGSLRLSCAASGRAFSSTYAMGWFRQAPGKEREFVADINWSEGSPMYIDSVKDRFTISRDNARNSLYLQMNSLKSEDTAVYYCAARRFGQGYEYWGQGTQVTVSS
notes: Used as VHH-containing bacterial (periplasmic) extract in ELISA; also called A4 HA-tag
On to B1, for which the signal-to-background ratio was over 20 in assay [1], about 1 in assay [2], about 1 in assay [3] and about 1 in assay [4]. For the same molecule, the binding result in assay [5], in assay [6] and in assay [7] was “no binding” in each case.

B2: HA-tagged variant of VHH A1 (VHH)
VHH: QVQLQESGGGLVQPGGSLRLSCAASESIFSRNHMSWYRQAPGKQRELAAIITSDGNTNYPDSVKGRFTISRDNAKNTVYLQMNSLKPEDTAVYYCNTFGRSVAGFYDYWGQGTQVTVSS
notes: Used as VHH-containing bacterial (periplasmic) extract in ELISA; also called A1 HA-tag
With B2, the signal-to-background ratio in assay [1] was over 20; in assay [2] it was about 1; in assay [3] it was about 1; in assay [4] it was about 1. Also, the binding result in assay [5], in assay [6] and in assay [7] was “no binding” in each case.

B3: HA-tagged variant of VHH A3 (VHH)
VHH: QVQLQESGGGLVQAGGSLRLSCGVSGNMFSMNLMGWYRQPPGKERDWVAVITKDGSTNYADSVKGRFTISRDNAKNTVSLQMNSLKPEDTAVYYCNVQDGSGWIRAWGWDWGQGTQVTVSS
notes: Used as VHH-containing bacterial (periplasmic) extract in ELISA; also called A3 HA-tag
On to B3, for which the signal-to-background ratio in assay [1] is over 20; in assay [2] it was about 1; in assay [3], about 1; in assay [4], about 1. Further, the binding result in assay [5], in assay [6] and in assay [7] was “no binding” in each case.

B4: HA-tagged variant of VHH A5 (VHH)
VHH: QVQLQESGGGLVQAGGSLRLSCGVSGNIFSMNLMGWYRQPPGKEREWVALITKDGSTNYEDSVKGRFTISRDNAKNTVSLQMNSLKPEDTAVYYCNAQDGSGWIRAWGWDWGQGTQVTVSS
notes: Used as VHH-containing bacterial (periplasmic) extract in ELISA; also called A5 HA-tag
With B4, the signal-to-background ratio is over 20 in assay [1], about 1 in assay [2], about 1 in assay [3] and about 1 in assay [4]. Besides, the binding result in assay [5], in assay [6] and in assay [7] was “no binding” throughout.

The values are drawn from patent US20230340111A1 (published 2023).
